# T1: GFP-TRAK1 (mouse, UniProt Q6PD31 1-939)
# T1 construct: TRAK1, mouse; also called kinesin adaptor TRAK1
# T1 sequence (looked up): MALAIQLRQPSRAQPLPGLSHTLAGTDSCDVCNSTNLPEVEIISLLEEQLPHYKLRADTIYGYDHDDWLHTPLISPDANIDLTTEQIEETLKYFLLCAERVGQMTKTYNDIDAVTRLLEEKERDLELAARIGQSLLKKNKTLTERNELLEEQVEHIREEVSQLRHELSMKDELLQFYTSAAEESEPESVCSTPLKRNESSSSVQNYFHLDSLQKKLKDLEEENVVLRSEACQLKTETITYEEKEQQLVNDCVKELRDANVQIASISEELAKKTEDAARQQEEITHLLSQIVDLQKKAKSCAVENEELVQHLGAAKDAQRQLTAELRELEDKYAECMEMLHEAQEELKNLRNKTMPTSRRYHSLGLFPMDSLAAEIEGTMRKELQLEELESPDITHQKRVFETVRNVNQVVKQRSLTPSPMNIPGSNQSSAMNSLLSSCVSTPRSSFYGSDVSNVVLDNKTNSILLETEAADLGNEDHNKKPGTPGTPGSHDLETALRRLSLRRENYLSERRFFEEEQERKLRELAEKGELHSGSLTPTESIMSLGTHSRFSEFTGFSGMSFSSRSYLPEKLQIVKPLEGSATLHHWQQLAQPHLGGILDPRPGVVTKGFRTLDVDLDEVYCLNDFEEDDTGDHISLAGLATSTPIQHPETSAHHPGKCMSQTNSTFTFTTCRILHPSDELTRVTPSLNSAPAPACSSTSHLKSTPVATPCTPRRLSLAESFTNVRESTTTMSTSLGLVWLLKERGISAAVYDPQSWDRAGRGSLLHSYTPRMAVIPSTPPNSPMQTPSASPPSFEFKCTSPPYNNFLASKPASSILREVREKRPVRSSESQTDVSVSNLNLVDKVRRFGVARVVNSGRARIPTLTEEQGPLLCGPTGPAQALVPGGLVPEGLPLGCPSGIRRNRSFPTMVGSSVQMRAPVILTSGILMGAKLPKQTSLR
# B1: Myc-tagged Miro1 (natural protein, UniProt Q8IXI2 1-618, looked up)
# chain: MKKDVRILLVGEPRVGKTSLIMSLVSEEFPEEVPPRAEEITIPADVTPERVPTHIVDYSEAEQSDEQLHQEISQANVICIVYAVNNKHSIDKVTSRWIPLINERTDKDSRLPLILVGNKSDLVEYSSMETILPIMNQYTEIETCVECSAKNLKNISELFYYAQKAVLHPTGPLYCPEEKEMKPACIKALTRIFKISDQDNDGTLNDAELNFFQRICFNTPLAPQALEDVKNVVRKHISDGVADSGLTLKGFLFLHTLFIQRGRHETTWTVLRRFGYDDDLDLTPEYLFPLLKIPPDCTTELNHHAYLFLQSTFDKHDLDRDCALSPDELKDLFKVFPYIPWGPDVNNTVCTNERGWITYQGFLSQWTLTTYLDVQRCLEYLGYLGYSILTEQESQASAVTVTRDKKIDLQKKQTQRNVFRCNVIGVKNCGKSGVLQALLGRNLMRQKKIREDHKSYYAINTVYVYGQEKYLLLHDISESEFLTEAEIICDVVCLVYDVSNPKSFEYCARIFKQHFMDSRIPCLIVAAKSDLHEVKQEYSISPTDFCRKHKMPPPQAFTCNTADAPSKDIFVKLTTMAMYPHVTQADLKSSTFWLRASFGATVFAVLGFAMYKALLKQR
# notes: Miro1, outer mitochondrial membrane GTPase; also called mycMiro1
# Target: T1, GFP-TRAK1
# Assay: co-IP; coimmunopurification of mycMiro1 and GFP-TRAK1 from transfected cells, untreated or treated with 10 uM FCCP, 1 h; GFP-TRAP beads per the methods; lysis in 50 mM Tris pH 7.4, 150 mM NaCl, 1 mM EDTA, 0.5% Triton X-100; western blot, densitometry
# Details: partners not purified
binder,measurement,value
B1,co-IP with FCCP relative to untreated control (1),0.94 fold of control
